We go through 9 sequences from PMC4231745.

Series [1] addresses His-MS2-MBP (MS2 coat protein fused to maltose binding protein) (bacteriophage MS2) (UniProt P03612). Nature of the series: SPR. The following applies: kon/koff fit, HBS-EP+; SPR: HBS-EP+ running buffer, Biacore X100, binding temperature not given; gel cleavage: 500 uM MgCl2, 150 mM NaCl, 1 mM DTT, 10 mM HEPES pH 7.4, 37 C.
The target is the same in series [2]. Nature of the series: ribozyme cleavage inhibition (gel). The following applies: SPR: HBS-EP+ running buffer, Biacore X100, binding temperature not given; gel cleavage: 500 uM MgCl2, 150 mM NaCl, 1 mM DTT, 10 mM HEPES pH 7.4, 37 C. (In general: Surface plasmon resonance follows binding to a sensor surface in real time, without labels.)

Sequence of UniProt P03612 (P03612 whole entry, the tested form may be a part): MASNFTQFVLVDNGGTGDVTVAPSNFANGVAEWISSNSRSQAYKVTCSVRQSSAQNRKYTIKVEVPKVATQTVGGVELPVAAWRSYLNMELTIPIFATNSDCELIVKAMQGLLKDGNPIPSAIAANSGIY

As a reminder, the Kd is a measure of binding affinity in units of concentration. Read a low Kd as tighter binding. As for “GCUGUCACCGGAUGUGCUUUCCGGUCUGAUGAGUCCGUUGUCCUAGGAUCACCAGGAAGGGACGGAGGACGAAACAGC [MS2-A7]”, the dissociation constant (Kd) in series [1] was found to be 279 nM.
Turning to “GCUGUCACCGGAAUCAAGGUCCGGUCUGAUGAGUCCGACCAUCAGGAGGACGAAACAGC [MS2-B3]”, the Kd in series [1] is 296 nM.
Regarding “GCUGUCACCGGAUGUGGUUUCCGGUCUGAUGAGUCCGACCAUCAGGAGGACGAAACAGC [MS2-B2]”, the Kd in series [1] came out at 237 nM.
The IC50 is the concentration at which inhibition is half-maximal. A higher IC50 goes with a need for much substance. As for “GCUGUCACCGGAUGUGCUUUCCGGUCUGAUGAGUCCGUUGUCCAGGAUCACCGGACGGGACGGAGGACGAAACAGC [MS2-A1]”, in series [2], the IC50 stood at 63 nM. The sequence also yielded a Kd in series [1] of 24.5 nM.
As to “GCUGUCACCGGAUGUGCUUUCCGGUCUGAUGAGUCCGUGGUCCACCAUCAGGGGACUGGACUGAGGACGAAACAGC [MS2-A3]”, the Kd in series [1] was 253 nM.
Turning to “GCUGUCACCGGAUGUGCUUUCCGGUCUGAUGAGUCCGUUGCGUAGGAUCACCACGUGGCGCGGAGGACGAAACAGC [MS2-A8]”, the Kd in series [1] worked out at 50 nM.
On to “GCUGUCACCGGAUUCGGGAUCCGGUCUGAUGAGUCCGACCAUCAGGAGGACGAAACAGC [MS2-B4]”, for which the Kd in series [1] was 224 nM.
On the same count and under the same terms, in the case of “GCUGUCACCGGAUGUGCUGCAGGAUCACCGCAUUUCCGGUCUGAUGAGUCCGUGAGGACGAAACAGC [MS2-B1]” it was 630 nM.
“GCUGUCACCGGAAUCAAGGUCCGGUCUGAUGAGUCCGUUGUCCACCAUCAGGGGACGGGACGGAGGACGAAACAGC [MS2-A2]” returned an IC50 in series [2] of 19 nM. In series [1], this sequence returned a Kd of 6.08 nM.
